The text below walks through data of paper PMC11617999.

Where “and” joins values, the source holds several entries; their conditions need not be identical. Equal values may be shown once.

For experiment [1], the target named is His-tagged FakB2 (Staphylococcus aureus) (S. aureus). Briefly: BLI; additional studies as a1 but FakB loaded at a range of 2 to 20 ug/mL.
Experiment [2] deals with Fatty acid kinase FakA, wild type (Staphylococcus aureus) (S. aureus). Briefly: SEC-SAXS; size-exclusion chromatography coupled with small-angle X-ray scattering of FakA in solution; AlphaFold dimer model refined with BilboMD, envelopes by DAMMIF and DENSS.
Experiment [3] shares this target. Briefly: mass photometry; kinetic mass photometry, 20 min after dilution to 10 nM (equilibrium); room temperature; 50 mM Tris pH 7.4, 150 mM KCl, 1 mM TCEP, 10 uM ZnSO4; dimer to monomers.
The target is the same in experiment [4]. Nature of the experiment: mass photometry; kinetic mass photometry, initial reading (0 min) after dilution to 10 nM; room temperature; 50 mM Tris pH 7.4, 150 mM KCl, 1 mM TCEP, 10 uM ZnSO4; dimer to monomers.
Experiment [5] deals with His-tagged FakB2 (Staphylococcus aureus) (S. aureus). Nature of the experiment: BLI; His-FakB2 (2 ug/mL) immobilised on Ni-NTA biosensor tips, blocked with 0.1 mg/mL BSA; varying concentrations of untagged FakA, 5 min association, 10 min dissociation; 50 mM Tris HCl pH 7.4, 150 mM KCl, 1 mM TCEP, 5% glycerol, 10 mM MgCl2; Octet RED96e; fitted 1:1 and with a bivalent analyte model.

The target in experiment [6] is His-FakB2 (fatty acid binding protein FakB2, Staphylococcus aureus) (S. aureus). Nature of the experiment: BLI; Octet RED96e; His-FakB2 (2 ug/mL) immobilised on Ni-NTA biosensor tips, blocked with 0.1 mg/mL BSA; untagged FakA 1.65-133.3 nM in solution, 5 min association, 10 min dissociation; 50 mM Tris HCl pH 7.4, 150 mM KCl, 1 mM TCEP, 5% glycerol, 10 mM MgCl2; 1:1 binding model (1 FakB2:1 FakA binding site).

In experiment [7] the target is FakA H282A, H284A variant (Staphylococcus aureus) (S. aureus). Briefly: mass photometry; kinetic mass photometry, 20 min after dilution to 10 nM (equilibrium); room temperature; 50 mM Tris pH 7.4, 150 mM KCl, 1 mM TCEP, 10 uM ZnSO4; dimer to monomers.
Experiment [8] has the same target. Nature of the experiment: mass photometry; kinetic mass photometry, initial reading (0 min) after dilution to 10 nM; room temperature; 50 mM Tris pH 7.4, 150 mM KCl, 1 mM TCEP, 10 uM ZnSO4; dimer to monomers.

Consider “Fatty acid kinase FakA, wild type (Staphylococcus aureus) (enzyme)”, for which the Kd in experiment [1] is 4.34 to 15 nM and 10.6 nM; in experiment [5], 4.34 nM. The substance further showed a stoichiometry N in experiment [2] of 2. The percent of protein in the dimer peak is 57% in experiment [3] and 77% in experiment [4].
In experiment [6], “FakA (fatty acid kinase, Staphylococcus aureus), untagged (enzyme)” showed a koff of 0.000686 s⁻¹ and a kon of 158000 M⁻¹ s⁻¹.
For the substance “FakA H282A, H284A variant (Staphylococcus aureus) (enzyme)”, the results for the percent of protein in the dimer peak in experiment [7] and in experiment [8] were 24% and 63%, respectively.
